Assay results from a protein production outcome set (Wang et al. 2014).

Assay: label from the status in PepcDB records

Sequence | protein production
MFSLRSALILALLIIASLVNTKYSLPLALLVVGLTYLLDEQRLLPYASIVSFLIPMVYPLETSYVPMIYALSSIGILASKYSRLLSSVLIILGVSILPLGDVQKYLILYLTAFLLLGVDIRGTLGGGIIMLILATQGYVPYDLAFYTILFGVLSLTTLYKIKVTRYHAIAILSAIFPLLYSYFPLPSFLVSLGSALVFPPALFSTSILLYVEGFKQGIYGLLLILLSLVYNRYEKYFRTISMVLVSAGLSIFSSVFPPLILILIVIYFLEKGKVLTYSQYFLIPLSLYLLIQGSYQSLVYSSIALIIVSTLRMILRTTDSNRFKKLVKLMNARIVGGIISLLIEIILFFIALQYLVFPLSYVALTLSVIYAVFIFRERNAFVHFSLSAVLALFFNPVFALGGIKLKDSLNVIVVALTIIMGILFSHTLYFSIISVFLSVSYLLQKFDIHDLVPLSVISIVSIIPGITWTYVLPPILLSFSYLITKKYSYELGLSSMFCIIILIHYLIV | failed
MFSPQASAAYDDLHEGYATYTGSGYSGGAFLLDPIPSDMEITAINPADLNYGGVKAALAGSYLEVEGPKGKTTVYVTDLYPEGARGALDLSPNAFRKIGNMKDGKINIKWRVVKAPITGNFTYRIKEGSSRWWAAIQVRNHKYPVMKMEYEKDGKWINMEKMDYNHFVSTNLGTGSLKVRMTDIRGKVVKDTIPKLPESGTSKAYTVPGHVQFPELEHHHHHH | not failed
MFSRVPAKSIARFRCVSESIHRRPDVTEQSLTKSMSRPRLLFALEVNKDLLFFSSPQPQNPYDNSSLVATPYKRFPKYLPTRICTTLGGLVFLQKWLRKKTRVICNPVSGDYITLPKVKATGVGESYFGFDPITKQFKVLCMTWSRYGTPNTHQVLTLETGKRLWRTIQDPILPHYRSFDRICINGVLYYGADFEESQSSKIVCFDFRFEKFSFINIADEGMFRGSYKWTLFNYKGKLGAHQYSRNGELVLWVLEDAENHKWSKSICILPPIVHNSRIVGVTGTGEIVFSPYACYMPSPFYIFFYNIQTKTCTRVHVKGFEEFKHNFTLLHTFLDFVEDTKFM | failed
MFTESSPAMDPDLPESETRPEFNPSSTDSTAMAESTDAGEPTAFELASSQVTSVADLPPERFNSLDELTHDLGSLHELSTRGSWQAILEKISQARALFLLTKPHEHLTYLTYQVMALAKLRRSDEASHELNSLHDFDGTHYRYESFPEIYPNRRGSMVPFSLRWLYALIPTKLGNRQEGLDRLYVLLDFVRDRIREKESQSLESSVELWKKRETFVMNCLLGFHLGHKEFGVSLDLMKELINRDPLDPVLISKLGSVQMQFGDVEGAKTTFDRVEKMLNEGKSNGLLNEIQFNNLVGRNKALVYVVAKDYVSAVREYDKCIERDNSDIIAVNNKALCLMYLRDLSDAIKVMESALERVPTAALNESLVVNLCSMYELAYVNHTDVKRTLNNWIARVAPDDFDSSCTRV | failed
MFTETGLKSGRRTMRFARLLLLPLIVIGTLSGCAVNMADIHGFNVISLEQEKELGTKFAAEIEKQYPVYNDPEAQKYVDRLGRRLLTGAREVSFDYVFKVVKDDSVNAFAIPGGRLYVHTGLLKAAQSETEVAAVMAHEISHAVARHGTRQMTQQYGYSLVLSLVLGQNSNMLAQIAGELFGKAGMMSYSRDYENQADFLGVETMSKAGYNPQGMVSFFQKLDTMGQQNPSALTKFFSSHPLTSERIQRVQAEIAQLPPRTYPPVDNTDLQKIRARIKLEHHHHHH | failed
MFTGSIVALVTPMDEKGNVSRSCLKKLIDYHVANGTSAIVSVGTTGESATLSHDEHGDVVMMTLELADGRIPVIAGTGANATAEAISLTQRFNDSGIVGCLTVTPYYNRPTQEGLFQHFKAIAEHTDLPQILYNVPSRTGCDMLPETVGRLAEIKNIIAIKEATGNLTRVHQIKELVSDDFILLSGDDASALDFMQLGGHGVISVTANVAAREMADMCKLAAEGQFAEARAINQRLMPLHNKLFVEPNPIPVKWACKALGLVATDTLRLPMTPITDHGRDIVKAALQHAGLL | not failed
MFVFGAYWFDCGERAVLPANSRGALRPQCTRLRFWRGRYWHRGAVSALRRVRPLSASTPSPRVLDGSQSLADTPDNVQQLLQHMSQELDSVVQSMVHLEEYALEQVEKLKGAMEADLRKLALYEEEQAFAQKLTEQLQKKEGAVFEAMRHFLFHVVGLQEQTVAITNELQVLHEFVSENHERVELVLESLRERGLFGSRQDVFEGEVKKKLDRFDPEI | failed
MFVQSALHQLKVAVDTSIQMLDQYTEIDLKIAPIQSKRSLFEMYAHLSLICHADLLILNGSTEKELHTFYKEQTPETIAQMQKTMIQGYDLLSKTFLSYSNEQLAEMKTAYWGISYSRFEWLLEIVAHFYHHRGQIHILLCEHMKDPNIPLFQ | not failed
